One data set has as its target WT-mcGAScat (mouse, UniProt Q8C6L5 147-507). Nature of the data set: crystal structure; 2'-dATP; FA: 5 nM FAM-dsDNA, as previously reported (reaction buffer likely 25 mM Tris-acetate pH 7.4, 125 mM KAc, 5 mM MgAc2, 1 mM TCEP, 5% glycerol, 25 C); crystals: 0.2 M ammonium acetate, 32% MPD, 0.1 M Bis-Tris pH 6.5, 4 C. The following applies: protein: recombinant; tags: none left (N-terminal 6xHis-MBP removed by TEV); chain copies: 2; blunt; self-complementary, 2 copies of the strand.

The target of the next data set is QN-mcGAScat (mouse, UniProt Q8C6L5 147-507, E211Q;D213N). Description: crystal structure; ATP, GTP, Mg2+; FA: 5 nM FAM-dsDNA, as previously reported (reaction buffer likely 25 mM Tris-acetate pH 7.4, 125 mM KAc, 5 mM MgAc2, 1 mM TCEP, 5% glycerol, 25 C); crystals: 0.2 M ammonium acetate, 32% MPD, 0.1 M Bis-Tris pH 6.5, 4 C. The following applies: protein: recombinant; tags: none left (N-terminal 6xHis-MBP removed by TEV); chain copies: 2; blunt; self-complementary, 2 copies of the strand.
Chain of QN-mcGAScat (Q8C6L5 147-507 E211Q/D213N): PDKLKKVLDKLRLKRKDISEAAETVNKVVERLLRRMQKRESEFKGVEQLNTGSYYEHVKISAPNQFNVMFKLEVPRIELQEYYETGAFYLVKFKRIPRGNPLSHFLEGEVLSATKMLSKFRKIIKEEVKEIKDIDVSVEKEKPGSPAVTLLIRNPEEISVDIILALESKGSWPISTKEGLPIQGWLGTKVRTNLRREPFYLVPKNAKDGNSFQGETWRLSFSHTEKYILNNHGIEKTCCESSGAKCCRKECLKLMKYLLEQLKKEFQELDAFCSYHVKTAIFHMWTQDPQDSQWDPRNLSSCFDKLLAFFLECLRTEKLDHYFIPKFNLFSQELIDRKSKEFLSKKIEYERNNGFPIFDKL

Chain of WT-mcGAScat (Q8C6L5 147-507): as the sequence (Q8C6L5 147-507 E211Q/D213N) above, with Q65E, N67D counted along it

B1: 18-bp palindromic dsDNA (dsDNA)
DNA 1: ATCTGTACATGTACAGAT
DNA 2: ATCTGTACATGTACAGAT
In the case of B1, the binding result with WT-mcGAScat and with QN-mcGAScat was “binds” throughout.

These data come from publication PMC11091121, “The structural basis for 2′−5′/3′−5′-cGAMP synthesis by cGAS”.
